In general, Kd refers to the equilibrium constant for the complex coming apart. As usually defined, the koff is a measure of how fast the partners let go of each other. A higher koff goes with fast dissociation. The kon is the second-order rate constant of association.

The experiment concerns the target T1, purified extracellular domain of PSMA (prostate-specific membrane antigen), residues 44-750 (UniProt Q04609 44-750).
T1 construct: range 44-750; The limits 44-750 are stated for the immunogen; Docking used PDB 1Z8L; also called soluble PSMA; monomeric PSMA
The experiment in a line: SPR (ProteOn XPR36), NB immobilised, soluble PSMA as analyte, 1:1 Langmuir, 25 C. On the procedure: The bottom curve in each sensogram represents the lowest concentration, while the top curve represents the highest concentration. A FACS analysis (n=3) was used to determine the binding of these NBs (0.1-1,000 nM) to PC3-PIP (PSMA⁺) cells (1E) and to PC3-flu (PSMA⁻) cells (1F). For convenience, each fluorescence value was normalized to the fluorescence values at the highest and lowest concentrations of PC3-PIP cells.
The affinity of each NB to PSMA was determined by using surface plasmon resonance (SPR) spectroscopy on a ProteOn XPR36 chip (Bio-Rad, CA). The chip was activated by using sulfo-NHS (0.1 M N-hydroxysuccinimide) and EDC [0.4 M 1-ethyl-3-(3-dimethylaminopropyl)-carbodiimide]. Each NB (0.2 μg) was immobilized in a 10 mM sodium acetate buffer, pH 5.0, at a flow rate of 30 μl/min. Bovine serum albumin (BSA) (3 μg) was immobilized on the chip as a negative control. Unbound esters were deactivated with 1 M ethanolamine HCl at pH 8.5. […] During this time, the association between the NBs and PSMA was measured. The dissociation was measured while flowing 50 μ1/min PBST (namely, a phosphate-buffered saline with 0.005% Tween). For each protein complex, a binding sensogram was generated by subtracting the values of the PSMA response to BSA from those of the PSMA response to the NBs. The dissociation constant (KD) was determined from the Langmuir 1:1 kinetic model. The temperature throughout the binding measurements was set at 25° C.

Changes are numbered by the printed parent chain.

T1 sequence (Q04609 44-750 limits assumed): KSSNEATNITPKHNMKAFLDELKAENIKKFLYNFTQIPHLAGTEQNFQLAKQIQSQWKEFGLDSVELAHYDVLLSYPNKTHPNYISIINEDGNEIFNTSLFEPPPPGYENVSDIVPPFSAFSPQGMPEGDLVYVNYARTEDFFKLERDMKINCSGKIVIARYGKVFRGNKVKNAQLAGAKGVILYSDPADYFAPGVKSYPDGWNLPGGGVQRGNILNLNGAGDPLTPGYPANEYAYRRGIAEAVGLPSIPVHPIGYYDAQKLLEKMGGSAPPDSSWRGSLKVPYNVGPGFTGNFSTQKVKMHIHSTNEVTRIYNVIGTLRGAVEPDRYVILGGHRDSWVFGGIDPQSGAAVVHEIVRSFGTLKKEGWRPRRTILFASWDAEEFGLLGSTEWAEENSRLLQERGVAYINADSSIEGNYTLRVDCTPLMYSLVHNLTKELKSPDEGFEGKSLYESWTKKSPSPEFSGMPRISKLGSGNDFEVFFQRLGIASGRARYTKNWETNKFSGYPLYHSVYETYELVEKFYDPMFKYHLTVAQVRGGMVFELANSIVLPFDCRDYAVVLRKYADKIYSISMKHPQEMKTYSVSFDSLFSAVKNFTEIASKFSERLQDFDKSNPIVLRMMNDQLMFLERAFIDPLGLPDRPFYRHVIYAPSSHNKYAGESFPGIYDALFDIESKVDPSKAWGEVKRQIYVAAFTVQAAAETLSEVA

B1: NB7 (VHH)
VHH: QVQLQESGGGSVQAGGSLRLSCTAPGYTDSNYYMSWFRQAPGKEREWVAGVNTGRGSTSYADSVKGRFTISQDNAKNTMFLQMNSLKPEDTAIYYCAVAACHFCDSLPKTQDEYILWGQGTQVTVSS
notes: also called nanobody 7; anti-PSMA NB7; not shown: His tag (NBs purified on Ni-NTA and detected with anti-His)
Consider B1, for which the Kd was 0.055 nM, the koff stood at 3.9e-05 s⁻¹ and the kon turned out to be 710000 M⁻¹ s⁻¹.

B2: NB8 (VHH)
VHH: QVQLQESGGGSVQAGGSLRLSCARSGWPYSTYSMNWFRQAPGKEREAVAGISSTMSGIIFAESKAGQFTISQDNAKNTVYLQMNNLKPEDTAIYYCAARRDYSLSSSSDDFDYWGQGTQVTVSS
notes: also called nanobody 8; PDB 6XXO; not shown: His tag (NBs purified on Ni-NTA and detected with anti-His)
Turning to B2, binding was characterised by a dissociation constant (Kd) of 6 nM, the koff turned out to be 0.00012 s⁻¹ and the kon came to 20000 M⁻¹ s⁻¹.

B3: NB37 (VHH)
VHH: B2 VHH with Q13E
notes: also called nanobody 37; PDB 6XXP; not shown: His tag (NBs purified on Ni-NTA and detected with anti-His)
The molecule B3 showed a Kd of 3.4 nM, a koff of 7.5e-05 s⁻¹ and a kon of 22000 M⁻¹ s⁻¹.

B4: NB13 (VHH)
VHH: QVQLQESGGGSVQTGGSLRLSCAASGYTASFSWIGYFRQAPGKEREGVAVINVGVGSTYYADSVKGRFTISRDNTENTISLEMNSLKPEDTGLYYCAGSLRWSRPPNPISEDAYNYWGQGTQVTVSS
notes: also called nanobody 13; not shown: His tag (NBs purified on Ni-NTA and detected with anti-His)
As for B4, the Kd was determined as 0.6 nM, the koff was found to be 2.2e-05 s⁻¹ and the kon came to 36000 M⁻¹ s⁻¹.

Source of the values: US20220306764A1 (NATIONAL INSTITUTE OF BIOTECHNOLOGY IN THE NEGEV, published 2022).
